PMC3956926, “Acetate Kinase Isozymes Confer Robustness in Acetate Metabolism” (PLoS ONE, 2014)

Columns and labels:
Experiment in all cases: purified protein
purified protein [1] = substrate: CC(=O)O; details: OAc to Ac-P, varying ATP, 4.2 mM MgCl2, 100 mM HEPES, 400 mM potassium glutamate, pH 7.5, apparent Km
purified protein [2] = substrate: Nc1ncnc2c1ncn2[C@@H]1O[C@H](COP(=O)(O)OP(=O)(O)OP(=O)(O)O)[C@@H](O)[C@H]1O; type: biochemical, Lactococcus cremoris; details: OAc to Ac-P, varying acetate, 4.2 mM MgCl2, 100 mM HEPES, 400 mM potassium glutamate, pH 7.5
purified protein [3] = substrate: CC(=O)OP(=O)(O)O; type: biochemical, Lactococcus cremoris; details: Ac-P to OAc, varying ADP, 5 mM MgSO4, 100 mM HEPES, 400 mM potassium glutamate, pH 7.5
purified protein [4] = substrate: Nc1ncnc2c1ncn2[C@@H]1O[C@H](COP(=O)(O)OP(=O)(O)O)[C@@H](O)[C@H]1O; type: biochemical, Lactococcus cremoris; details: Ac-P to OAc, varying Ac-P, 5 mM MgSO4, 100 mM HEPES, 400 mM potassium glutamate, pH 7.5

| Protein | Km (purified protein [1]) | kcat (purified protein [1]) [s⁻¹] | Km (purified protein [2]) | kcat (purified protein [2]) [s⁻¹] | Km (purified protein [3]) | Km (purified protein [4]) | kcat (purified protein [4]) [s⁻¹] |
| --- | --- | --- | --- | --- | --- | --- | --- |
| AckA1 (Lactococcus cremoris subsp. cremoris MG1363) (protein, His-tagged (vector pQE30, N-terminal tag kept), from E. coli M15 pREP4 groESL, Ni-NTA; 100 kDa by gel filtration, monomer 43 kDa, homodimer; residue V331 in ATP site) MTKTLAVNAGSSSMKWQMYEMPEEKVLAKGLIERIGLKDSIVTVKFGEEKEERVFDIPNHTEAVEVLLEDLKRLKIVEEFTEITGVGHRVVAGGEIFQKSTVVTPEVLQQVKDLSALAPLHNPANAAGIEAFLNLLPDATSVVVFDTAFHTTMPEKAFRYPLPKKYYTDYAVRKYGAHGTSHMYVSQEAAKLLGKPIEETKIITAHIGNGASITAVKGGESVDTSMGFTPLAGVMMGTRTGEMDPSVFPYLIENDSELKDAQDVVDMMNKESGLYGVSGISSDMRDIIAAKDTDADAKLAFEMYVDRIQKFIGQYLAVLNGADALVFTAGIGENSVPVREAILSGLTWFGIEVDPEKNVFGVEGEISKPSSRLKVFVIPTDEELVIARDVEALKK | 22.07 (1.05) mM | 3234 | 0.086 (0.0078) mM | 3234 | 0.35 (0.02) mM | 0.94 (0.09) mM | 1033 |
| AckA2 (Lactococcus cremoris subsp. cremoris MG1363) (protein, His-tagged (vector pQE30, N-terminal tag kept), from E. coli M15 pREP4 groESL, Ni-NTA; 84 kDa by gel filtration, monomer 43 kDa, homodimer; residue I331 in ATP site) MEKTLAVNAGSSSLKWQLYEMPEETVIAKGIFERIGLSGSISTTKFNNEEHVRKQEIVDHRQAVLLLMDELIHFQLIHEFREITGIGHRVVAGGEFFKDSTIITPEVLAEIKNLSTLAPLHNPANVLGIEAFQRLLPDALAVAVFDTAFHSTLPEKAYRYPIPTKYYEDYSIRKYGAHGTSHMYVAQEAAKVLGKPLEELKIITAHIGNGASITAIEGGKSVDTSMGFTPLAGVMMGTRAGEMDASVIPYMLESDPSLRNAQDVIDILNKESGVLGVSELSSDMRDLSEAVAKGNPKAILAYEMYVDRLKKFIAQYFGVLNGADALIFTAGVGENDTAVRTDVVNGLSWFGMEIDESKNVRGAFGIISKPESKVKVLVVPTNEELVIARDVEAAK | 1.87 (0.29) mM | 394 | 0.21 (0.12) mM | 394 | 0.086 (0.02) mM | 1.15 (0.12) mM | 282 |
